Reference: patent US11339209B2, “Compositions, methods, and therapeutic uses related to fusogenic protein minion” (NOVARTIS AG, priority 2016, dated 2022)

T1: Myomaker (Mus musculus, UniProt Q9D1N4)
T1 construct: endogenous in cells; host or cells: Differentiating muscle cells
T1 sequence (Q9D1N4 1-221): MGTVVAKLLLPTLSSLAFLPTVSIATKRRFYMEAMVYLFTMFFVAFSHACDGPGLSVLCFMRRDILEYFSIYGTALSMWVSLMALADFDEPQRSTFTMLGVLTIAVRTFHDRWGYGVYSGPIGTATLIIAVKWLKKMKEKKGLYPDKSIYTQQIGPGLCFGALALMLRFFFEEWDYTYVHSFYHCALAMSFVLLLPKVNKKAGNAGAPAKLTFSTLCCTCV

B1: mouse MINION: 84 aa mouse microprotein inducer of fusion, expressed from retroviral cDNA, untagged or C-terminally 3×FLAG-1×HA-tagged (protein, listed as Mus musculus)
chain: MPVPLLPMVLRSLLSRLLLPVARLARQHLLPLLRRLARRLSSQDMREALLSCLLFVLSQQQPPDSGEASRVDHSQRKERLGPQK
B2: human Minion: human ortholog of MINION, 84 codon ORF, expressed from retroviral cDNA, untagged or C-terminally epitope-tagged (protein, listed as Homo sapiens)
chain: MPTPLLPLLLRLLLSRLLLPAARLARQYLLPLLRRLARRLGSQDMREALLGCLLFILSQRHSPDAGEASRVDRLERRERLGPQK
B3: Myomaker: muscle-specific transmembrane protein; mouse tmem8c CDS expressed from retroviral vector (protein)
chain: T1 sequence (Q9D1N4 1-221)

Experiments:
C2C12 myoblasts = experiment: Cell mixing of 10T1/2 fibroblasts with differentiating C2C12 myoblasts; format: cell-based, mouse; details: 10T1/2 fibroblasts mixed with wild-type C2C12 myoblasts (1:2), 3 days in differentiation medium
Text: Differentiating myoblasts and myotubes are marked by MHC. 10T1/2 fibroblasts were infected with retrovirus expressing GFP and proteins of interest (left, NanoLuc control; middle, mouse Myomaker; right, mouse Minion). DAPI marks nuclei. […] White arrows indicate MHC-positive myotubes that are not fused to fibroblasts. n=2 (eight technical replicates each). 0.7 mm×0.7 mm fields are shown. […] 0.7 mm×0.7 mm fields at ×20 magnification are shown. Control and Minion^KD myoblasts were used. Differentiating myoblasts and myotubes are marked by MHC. 10T1/2 fibroblasts expressing Myomaker were labelled with CellTrace Violet dye before mixing. […]
(§1) Cell labeling was performed according to manufacturer's instructions with slight modifications. […] After the last wash, the cells were counted and diluted to the concentration needed for the final mixing experiment in a 384-well or 24-well plate, and were incubated at 37° C. for 30 min. […]
C3H 10T1/2 fibroblasts were infected with retroviruses encoding GFP and either control, Myomaker or Minion; GFP-positive fibroblasts were then mixed with wild-type C2C12 myoblasts and kept in differentiation medium for 3-4 days. Differentiating myoblasts and myotubes were marked by MHC expression, and fusion of GFP-positive fibroblasts to myotubes was readily detected when Myomaker, but not Minion or control, was expressed (FIG. 28A).

Myomaker = target: T1, Myomaker; experiment: Co-immunoprecipitation of Minion with Myomaker in differentiating muscle cells; format: binding; details: tagged and untagged Minion, endogenous and overexpressed Myomaker
10T1/2 fibroblasts = experiment: Heterologous co-expression, syncytia formation between fibroblasts; format: cell-based; details: retroviral expression in 10T1/2 fibroblasts, growth medium
Protocol: In order to infect C2C12 cells and 10T1/2 cells, neat virus was incubated with 8 μg/ml polybrene at 37° C. for 10 min and then added to the cells, which were then incubated for 15 min at 37° C. One round of spin infection was performed using 24-well or 12-well plates at 1100 g for 1-1.5 hours and 32° C. After 4-6 hours, fresh neat virus with polybrene was added and a second round of spin infection was performed. Fresh medium was added to the infected cells to dilute the polybrene. […] Infection efficiency of this two-round infection method was generally >95% over a large range of viral concentrations, therefore FACS was not generally necessary. This strong GFP signal was used to mark the boundary of cells, in addition to phase contrast imaging and nuclear markers (FIGS. 22, 23A-23F); moreover, in cells that were fixed with 4% PFA but not permeabilized with detergents, the GFP signal was higher in the nuclear region, allowing unambiguous delineation of both the cell boundary and nuclei. […]
as §1

MINION^KD C2C12 cells = experiment: In vitro reconstitution (complementation) assay of the fusion defect in MINION^KD C2C12 cells; format: cell-based, mouse; details: retroviral cDNA expression, 5 days in differentiation medium, MHC immunofluorescence, MINION tested tagged and untagged
Protocol: For primary myoblasts derived from both embryos and adult mice, around 3000 cells in 50 μl myoblast growth medium (1:1 mixture of DMEM low glucose and Ham's F-10 Nutrient Mix; 20% (v/v) FBS; freshly added 2.5 ng/ml rhFGF) were seeded into each well of a 384-well Collagen-coated PerkinElmer CellCarrier™ plate (6007550) for imaging purposes. The next day, differentiation medium (DMEM high glucose (Gibco® 11995073) with 3% to 5% horse serum) was added to the cells (DM day 0). Differentiation medium was replaced daily. The cells were fixed at DM day 3 and day 4 for immunofluorescence staining. For C2C12 cells, ˜1500-2000 cells were seeded into each well of a 384-well plate (DMEM high glucose with 10% FBS) and around 2×10^5 cells were seeded into each well of a 6-well plate, using C2C12 growth medium (DMEM high glucose with 10% FBS). On the next day, differentiation medium (DMEM high glucose with 2% horse serum) was added to the cells (DM day 0), and differentiation medium was likewise replaced daily. […]
For the cloning of cDNA constructs, the coding sequences (CDS) of mouse MINION (for the 84 aa isoform), human MINION ortholog, mouse tmem8c (myomaker), nanoluc (control A), luciferase (control B), mouse MINION with 1 bp insertion, human MINION with 1 bp deletion, and mouse MINION truncation (39 aa form) were synthesized (IDT) with attB sites at both ends and a consensus Kozak sequence (5′ GCCACC (SEQ ID NO: 94)) before the start codon. […] After expression testing of the two 3F1H-tagged mouse and human MINION constructs, it was noticed that two bands were detected by Western blot with anti-FLAG antibody (FIG. 16). […]
To examine the knockdown efficiency of the mouse MINION transcript, shRNA-encoding lentiviruses were used to infect C2C12 cells. […] Based on an estimated viral titer of 1×10^8 vp/ml (as measured on 293T cells), a virus amount equivalent to MOI30 on 293T cells was used on C2C12 cells. […] Infection efficiency of 70-85% was routinely achieved as judged by FACS analysis, though GFP signal in undifferentiated C2C12 cells was barely discernable by EVOS fluorescence microscopy. […]

Molecule	fusion of fibroblasts expressing the protein to wild-type differentiating myoblasts and myotubes (C2C12 myoblasts)	physical interaction with Myomaker (co-immunoprecipitation, western blot) (Myomaker)	cell fusion between fibroblasts (multinuclear syncytia) (10T1/2 fibroblasts)	rescue of the cell fusion defect (MINION^KD C2C12 cells)
B1	failed to do so	no detectable physical interaction	neither Myomaker nor Minion alone (FIG. 21D) was sufficient	robustly rescued fusion
B2				strongly reconstituted cell fusion
B3	fused with wild-type differentiating myoblasts and myotubes		neither Myomaker nor Minion alone (FIG. 21D) was sufficient	incapable of rescuing the fusion defect
